From patent publication US20240376151A1, “STAPLED PEPTIDES AND METHODS THEREOF” (FOG PHARMACEUTICALS, INC., priority 2022, published 2024)

Experiments:
[1] = molecular target: T1, RNF31 UBA domain (Homo sapiens, UniProt Q96EP0); experiment: Phage Library Screening with NGS, RNF31 UBA domain; type: binding; conditions: for phage screen NGS read-out at Target Concentration 10 / phage screen NGS read-out at Target Concentration 30 / phage screen NGS read-out at Target Concentration 100 / phage screen NGS read-out at Target Concentration 300: no competitor; for Phage library screen NGS readout, Target Concentration 10 / Phage library screen NGS readout, Target Concentration 30 / Phage library screen NGS readout, Target Concentration 100 / Phage library screen NGS readout, Target Concentration 300 / Phage library screen NGS readout, Target Concentration 1000: RNF31 UBA domain cluster C46; for Phage library screen NGS readout, BLANK: cluster C46
T1 construct: RNF31 UBA domain protein (residues 480-639) with N-terminal Thioredoxin-TEV-6×his-yBBr-3C tags; Thioredoxin (N, cleaved yes); made in house; host or cells: E. coli BL21 (DE3) pLysS
T1 sequence (Q96EP0 480-639): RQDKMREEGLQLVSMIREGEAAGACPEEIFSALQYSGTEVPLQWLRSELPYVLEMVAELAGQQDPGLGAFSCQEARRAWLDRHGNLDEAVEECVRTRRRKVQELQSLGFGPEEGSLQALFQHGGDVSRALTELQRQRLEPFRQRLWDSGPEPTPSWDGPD

[2] = molecular target: T2, beta-catenin (Homo sapiens, UniProt P35222); experiment: Phage Library Screening with NGS, beta-catenin; type: binding; conditions: for Target Concentration 10 (phage screen NGS readout): beta-catenin target concentration 10; for Target Concentration 10 (phage screen NGS readout) / Target Concentration 30 (phage screen NGS readout) / Target Concentration 100 (phage screen NGS readout) / Target Concentration 300 (phage screen NGS readout): no competitor; for Target Concentration 30 (phage screen NGS readout): beta-catenin target concentration 30; for Target Concentration 100 (phage screen NGS readout): beta-catenin target concentration 100; for Target Concentration 300 (phage screen NGS readout): beta-catenin target concentration 300; for Target Concentration 1000 (phage screen NGS readout): beta-catenin target concentration 1000
T2 construct: made in house; host or cells: E. coli BL21 (DE3) pLysS
T2 sequence (P35222 134-665): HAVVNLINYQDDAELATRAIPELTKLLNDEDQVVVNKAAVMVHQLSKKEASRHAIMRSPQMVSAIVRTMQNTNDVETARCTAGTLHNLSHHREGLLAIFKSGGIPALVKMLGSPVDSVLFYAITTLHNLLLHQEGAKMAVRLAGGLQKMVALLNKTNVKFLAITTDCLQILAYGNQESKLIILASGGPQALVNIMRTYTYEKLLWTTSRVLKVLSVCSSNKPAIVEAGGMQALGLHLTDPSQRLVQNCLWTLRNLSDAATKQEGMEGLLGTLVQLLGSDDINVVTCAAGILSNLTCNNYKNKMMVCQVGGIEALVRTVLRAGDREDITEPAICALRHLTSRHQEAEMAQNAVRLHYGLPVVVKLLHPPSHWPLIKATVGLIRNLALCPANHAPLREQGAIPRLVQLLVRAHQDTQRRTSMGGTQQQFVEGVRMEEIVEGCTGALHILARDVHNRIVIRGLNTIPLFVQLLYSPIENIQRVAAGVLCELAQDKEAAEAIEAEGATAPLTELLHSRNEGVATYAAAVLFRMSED

[3] = target concentration 1000, first column
[4] = target concentration 1000, second column

Sequence	phage screen NGS read-out at Target Concentration 10 [1]	phage screen NGS read-out at Target Concentration 30 [1]	phage screen NGS read-out at Target Concentration 100 [1]	phage screen NGS read-out at Target Concentration 300 [1]	Target Concentration BLANK (phage screen NGS readout) ([2]; first column)	Target Concentration BLANK (phage screen NGS readout) ([2]; fourth column)	Target Concentration BLANK (phage screen NGS readout) ([2]; second column)	Target Concentration BLANK (phage screen NGS readout) ([2]; third column)	Target Concentration 10 (phage screen NGS readout) [2]	Target Concentration 30 (phage screen NGS readout) [2]	Target Concentration 100 (phage screen NGS readout) [2]	Target Concentration 300 (phage screen NGS readout) [2]	Target Concentration 1000 (phage screen NGS readout) ([2]; first 1000 column)	Target Concentration 1000 (phage screen NGS readout) ([2]; second 1000 column)	other results
DPAAFVCEMAANDCLYT	0	1	0	2	–	–	–	–	–	–	–	–	–	–	–
DPAALACLSAAVYCEMY	–	–	–	–	–	–	–	–	–	–	–	–	–	–	Phage library screen NGS readout, Target Concentration 10 [1]: 6; Phage library screen NGS readout, Target Concentration 30 [1]: 49; Phage library screen NGS readout, Target Concentration 100 [1]: 132; Phage library screen NGS readout, Target Concentration 300 [1]: 200; Phage library screen NGS readout, Target Concentration 1000 [1, 3]: 199; Phage library screen NGS readout, Target Concentration 1000 [1, 4]: 246; Phage library screen NGS readout, BLANK ([1]; column 1 of 5): 0; Phage library screen NGS readout, BLANK ([1]; column 2 of 5): 1; Phage library screen NGS readout, BLANK ([1]; column 3 of 5): 2; Phage library screen NGS readout, BLANK ([1]; column 4 of 5): 0; Phage library screen NGS readout, BLANK ([1]; column 5 of 5): 1
DPAAQACLSAAVFCAWY	–	–	–	–	–	–	–	–	–	–	–	–	–	–	Phage library screen NGS readout, Target Concentration 10 [1]: 5; Phage library screen NGS readout, Target Concentration 30 [1]: 19; Phage library screen NGS readout, Target Concentration 100 [1]: 45; Phage library screen NGS readout, Target Concentration 300 [1]: 86; Phage library screen NGS readout, Target Concentration 1000 [1, 3]: 88; Phage library screen NGS readout, Target Concentration 1000 [1, 4]: 97; Phage library screen NGS readout, BLANK ([1]; column 1 of 5): 0; Phage library screen NGS readout, BLANK ([1]; column 2 of 5): 0; Phage library screen NGS readout, BLANK ([1]; column 3 of 5): 0; Phage library screen NGS readout, BLANK ([1]; column 4 of 5): 0; Phage library screen NGS readout, BLANK ([1]; column 5 of 5): 0
DPAASQCFSAAVYCAWI	–	–	–	–	–	–	–	–	–	–	–	–	–	–	Phage library screen NGS readout, Target Concentration 10 [1]: 0; Phage library screen NGS readout, Target Concentration 30 [1]: 0; Phage library screen NGS readout, Target Concentration 100 [1]: 8; Phage library screen NGS readout, Target Concentration 300 [1]: 13; Phage library screen NGS readout, Target Concentration 1000 [1, 3]: 16; Phage library screen NGS readout, Target Concentration 1000 [1, 4]: 13; Phage library screen NGS readout, BLANK ([1]; column 1 of 5): 0; Phage library screen NGS readout, BLANK ([1]; column 2 of 5): 0; Phage library screen NGS readout, BLANK ([1]; column 3 of 5): 0; Phage library screen NGS readout, BLANK ([1]; column 4 of 5): 1; Phage library screen NGS readout, BLANK ([1]; column 5 of 5): 0
DPAAYLCDMAAHNCLYL	1	0	0	0	–	–	–	–	–	–	–	–	–	–	–
DPADLICQLAAANCIYL	0	0	2	30	–	–	–	–	–	–	–	–	–	–	–
DPADLLCHMAAQNCLYR	1	0	0	0	–	–	–	–	–	–	–	–	–	–	–
DPADWTCVLAAHNCLYT	0	0	0	1	–	–	–	–	–	–	–	–	–	–	–
DPADYICYLAANNCLYH	3	1	4	19	–	–	–	–	–	–	–	–	–	–	–
DPAWILCDWAAMHCELV	–	–	–	–	0	0	0	0	0	0	2	3	1	18	–
DPAWQNCTWAAFHCELL	–	–	–	–	0	0	1	0	0	10	52	194	158	163	–
DPAWSDCIWAAEHCQLI	–	–	–	–	0	0	1	0	0	3	5	127	109	85	–
DPAWWQCDHAALICIAE	–	–	–	–	0	0	1	2	28	127	422	637	830	731	–
DPAYTYCQWAAEHCSLL	–	–	–	–	2	2	2	1	5	5	3	88	115	137	–
DPAYWDCTHAALLCNLD	–	–	–	–	0	0	1	2	3	14	152	42	543	409	–
DPAYWVCEHAALLCTDY	–	–	–	–	3	0	3	1	5	18	85	337	283	227	–
